The values that follow come from patent publication US20020143164A1, “Ras activator nucleic acid molecules, polypeptides and methods of use” (priority 1999, published 2002).

Assay [1] relates to Ras. Kind of assay: In vitro GEF assay (32P-α-GTP binding to Ras). It is filed as biochemical. Here is the method:
Full length (GRF4) or CDC25-deleted (ΔCDC25) GRF4, or GRF2, each Flag-tagged, were immunoprecipitated from transfected Hek-293T cells using anti Flag antibodies. Equal amounts of immunoprecipitates were washed with GEF lysis buffer, equilibrated with GEF assay buffer and incubated with 32P-α-GTP (diluted in cold GTP) plus 100 ng of Ras for 30 min. Bound and unbound radiolabelled GTP were then separated by filtration, and the amount of bound GTP determined by scintillation counting, as detailed in the Method section. Fold Ras activation was compared to the activation of Ras in the absence of GRFs (which was set to 1).
GRF4 has a RasGRF(GEF) activity/function. To show its GEF activity, we performed in-vitro GEF assays. Briefly, GST-Ras was added alone (tubes 1 and 2) or along with GST-CDC25, or immunoprecipitated full-length of GRF4 (tubes 3 and 4). All tubes contained assay mixture including cold GTP and P32 alpha GTP. The exchange reactions were stopped at the indicated times. The stopped reaction mixtures were passed through nitrocellulose filters which were then washed with stop buffer to separate bound and unbound nucleotides. Filters were dried and then quantified by scintillation counting to determine bound CPM. The labeled nucleotides trapped on the washed filters were assumed to be Ras-associated. The difference in bound CPM over 30 minute period was determined for reactions where GST-Ras was added alone (it is the difference in bound CPM between tubes 1 and 2) and where GST-Ras was added with a GEF (it is the difference in bound CPM between tubes 3 and 4).

Assay [2] relates to Ras. The following applies: reference 23; cited from earlier work.
Assay [3] deals with Ras. Kind of assay: Ras activation assay in living cells, GRF4 and deletion mutants expressed in HEK-293T cells. Type of assay: cell-based, human. Conditions: HEK-293T cells treated with 8-Br-cAMP. Here is the method:
HEK-293T cells were transfected with vector alone, GRF4 (WT), GRF4 lacking its cNMP-BD (ΔcNMP-BD) or its CDC25 domain (ΔCDC25), and then treated (or not) with 8-Br-cAMP. Cell lysates were then incubated with GST-Raf1-RBD to precipitate active Ras, and immunobloited with anti Ras antibodies as above (upper panel). Lower panels are controls for total endogenous Ras and transfected GRF4 or its mutants.
Flag, HA or myc tags was added to the N-terminus of full length GRF4 using PCR, and subcloned into the mammalian expression vector pCMV5 (Invitrogen). Mutants GRF4 with deletion of the CDC25 domain (residue 711-1007, GRF4DCDC25 or DCDC25 for short), the cNMP-BD (residue 134-254, DcNMP-BD), the PLPF motif in the PDZ domain (residue 396-399, -PLPF), or bearing mutations in the PDZ-binding motif (SAV to AAA), were generated using PCR. The GST-GRF4-cNMP-BD (residue 101-303) and GST-Carboxy-terminus (residue 1348-1499) were PCR-generated and cloned into pGEX-2T ( Pharmacia). The latter construct was used to generate a fusion protein (GST-GRF4C terminus) which was used to immunize rabbits for the generation of polyclonal anti GRF4 antibodies.
HEK-293T cells were transfected as above, serum starved overnight and then subjected to various treatments, as described in the text. […] GTP in the lysates was determined using activation specific probes as described. Briefly, to determined the levels of active Ras (Ras-GTP) in cell, sepharose-bound GST fusion protein of the Ras-binding domain (RBD) of Raf-1 (GST-Raf1-RBD; Upstate Biotechnology Inc.) was used to precipitate Ras-GTP from cell lysates, and the amount of Ras-GTP determined by immunoblotting with anti Ras antibodies (Quality Biotech). Similarly, to determine the level of Rap1-GTP in cell lysates, sepharose-bound GST fusion proteins of the Rap1-binding domain of RaIGDS (GST-RaIGDS-RBD) were used to precipitate Rap1-GTP, which was then detected on a Western blot using anti-Rap1 antibodies (Transduction Lab).

B1: GRF2: Flag-tagged full-length RasGRF2, positive control GEF for Ras (protein, UniProt O14827 1-1237, looked up)
chain: MQKSVRYNEGHALYLAFLARKEGTKRGFLSKKTAEASRWHEKWFALYQNVLFYFEGEQSCRPAGMYLLEGCSCERTPAPPRAGAGQGGVRDALDKQYYFTVLFGHEGQKPLELRCEEEQDGKEWMEAIHQASYADILIEREVLMQKYIHLVQIVETEKIAANQLRHQLEDQDTEIERLKSEIIALNKTKERMRPYQSNQEDEDPDIKKIKKVQSFMRGWLCRRKWKTIVQDYICSPHAESMRKRNQIVFTMVEAESEYVHQLYILVNGFLRPLRMAASSKKPPISHDDVSSIFLNSETIMFLHEIFHQGLKARIANWPTLILADLFDILLPMLNIYQEFVRNHQYSLQVLANCKQNRDFDKLLKQYEANPACEGRMLETFLTYPMFQIPRYIITLHELLAHTPHEHVERKSLEFAKSKLEELSRVMHDEVSDTENIRKNLAIERMIVEGCDILLDTSQTFIRQGSLIQVPSVERGKLSKVRLGSLSLKKEGERQCFLFTKHFLICTRSSGGKLHLLKTGGVLSLIDCTLIEEPDASDDDSKGSGQVFGHLDFKIVVEPPDAAAFTVVLLAPSRQEKAAWMSDISQCVDNIRCNGLMTIVFEENSKVTVPHMIKSDARLHKDDTDICFSKTLNSCKVPQIRYASVERLLERLTDLRFLSIDFLNTFLHTYRIFTTAAVVLGKLSDIYKRPFTSIPVRSLELFFATSQNNRGEHLVDGKSPRLCRKFSSPPPLAVSRTSSPVRARKLSLTSPLNSKIGALDLTTSSSPTTTTQSPAASPPPHTGQIPLDLSRGLSSPEQSPGTVEENVDNPRVDLCNKLKRSIQKAVLESAPADRAGVESSPAADTTELSPCRSPSTPRHLRYRQPGGQTADNAHCSVSPASAFAIATAAAGHGSPPGFNNTERTCDKEFIIRRTATNRVLNVLRHWVSKHAQDFELNNELKMNVLNLLEEVLRDPDLLPQERKAAANILRALSQDDQDDIHLKLEDIIQMTDCMKAECFESLSAMELAEQITLLDHVIFRSIPYEEFLGQGWMKLDKNERTPYIMKTSQHFNDMSNLVASQIMNYADVSSRANAIEKWVAVADICRCLHNYNGVLEITSALNRSAIYRLKKTWAKVSKQTKALMDKLQKTVSSEGRFKNLRETLKNCNPPAVPYLGMYLTDLAFIEEGTPNFTEEGLVNFSKMRMISHIIREIRQFQQTSYRIDHQPKVAQYLLDKDLIIDEDTLYELSLKIEPRLPA
modifications: full-length Flag tag
notes: Flag-tagged full-length RasGRF2, positive control GEF for Ras
As to B1, the “Fold Ras activation in vitro (activation without GRFs set to 1)” value in assay [1] (immunoprecipitated Flag-tagged protein, 100 ng Ras, 30 min) was 4.5 fold. Also, in assay [2], the “Binding to nucleotide-bound forms of Ras, similar experiments” value is “bind only to EDTA-treated Ras”.

B2: ACDC25: Mutant GRF4 with deletion of the CDC25 domain (residue 711-1007) (protein)
chain: MKPLAIPANHGVMGQQEKHSLPADFTKLHLTDSLHPQVTHVSSSHSGCSITSDSGSSSLSDIYQATESEAGDMDLSGLPETAVDSEDDDDEEDIERASDPLMSRDIVRDCLEKDPIDRTDDDIEQLLEFMHQLPAFANMTMSVRRELCAVMVFAVVERAGTIVLNDGEELDSWSVILNGSVEVTYPDGKAEILCMGNSFGVSPTMDKEYMKGVMRTKVDDCQFVCIAQQDYCRILNQVEKNMQKVEEEGEIVMVKEHRELDRTGTRKGHIVIKGTSERLTMHLVEEHSVVDPTFIEDFLLTYRTFLSSPMEVGKKLLEWFNDPSLRDKVTRVVLLWVNNHFNDFEGDPAMTRFLEEFENNLEREKMGGHLRLLNIACAAKAKRRLMTLTKPSREAPLPFILLGGSEKGFGIFVDSVDSGSKATEAGLKRGDQILEVNGQNFENIQLSKAMEILRNNTHLSITVKTNLFVFKELLTRLSEEKRNGAPHLPKIGDIKKASRYSIPDLAVDVEQVIGLEKVNKKSKANTVGGRNKLKKILDKTRISILPQKPYNDIGIGQSQDDSIVGLRQTKHIPTALPVSGTLSSSNPDLLQSHHRILDFSATPDLPDQVLRVFKADQQSRYIMISKDTTAKEVVIQAIREFAVTATPDQYSLCEVSVTPEGVIKQRRLPDQLSKLADRIQLSGRYYLKNNMETETLCSDEDAQELLRESQPKNPGDKKPVKSETSPVAPRAGSQQKAQSLPQPQQQPPPAHKINQGLQVPAVSLYPSRKKVPVKDLPPFGINSPQALKKILSLSEEGSLERHKKQAEDTISNASSQLSSPPTSPQSSPRKGYTLAPSGTVDNFSDSGHSEISSRSSIVSNSSFDSVPVSLHDERRQRHSVSIVETNLGMGRMERRTMIEPDQYSLGSYAPMSEGRGLYATATVISSPSTEELSQDQGDRASLDAADSGRGSWTSCSSGSHDNIQTIQHQRSWETLPFGHTHFDYSGDPAGLWASSSHMDQIMFSDHSTKYNRQNQSRESLEQAQSRASWASSTGYWGEDSEGDTGTIKRRGGKDVSIEAESSSLTSVTTEETKPVPMPAHIAVASSTTKGLIARKEGRYREPPPTPPGYIGIPITDFPEGHSHPARKPPDYNVALQRSRMVARSSDTAGPSSVQQPHGHPTSSRPVNKPQWHKPNESDPRLAPYQSQGFSTEEDEDEQVSAV
B2: the “8-Br-cAMP-mediated activation of Ras via the construct, compared with wt-GRF4” value in assay [3] was “almost abolished”.

B3: isolated CDC25 domain of GRF4: Isolated CDC25 catalytic domain of GRF4 (protein)
chain: SLLQLSTVEVATQLSMRNFELFRNIEPTEYIDDLFKLRSKTSCANLKRFEEVINQETFWVASEILRETNQLKRMKIIKHFIKIALHCRECKNFNSMFAIISGLNLAPVARLRTTWEKLPNKYEKLFQDLQDLFDPSRNMAKYRNVLNSQNLQPPIIPLFPVIKKDLTFLHEGNDSKVDGLVNFEKLRMIAKEIRHVGRMASVNMDPALMFRTRKKKWRSLGSLSQGSTNATVLDVAQTGGHKKRVRRSSFLNAKKLYEDAQMARKVKQYLSNLELEMDEESLQTLSLQCEPATNT
Regarding B3, in assay [1], the “In vitro GEF activity on Ras” value is listed as “unable to demonstrate significant activation”.
